# Laboratory results reported in patent publication US20250277030A1, “ANTI-NAPI2B ANTIBODIES AND METHODS OF USE” (Zymeworks BC Inc., priority 2022, published 2025).
# Legend:
# [1] = target: T1, NaPi2b expressed on IGROV-1 cells (Homo sapiens, UniProt O95436); test: Cellular binding to IGROV-1 cells by flow cytometry (Example 19); conditions: NB = no binding (apparent Kd >150 nM)
# T1 construct: IGROV-1 cells express endogenous NaPi2b at a high level; endogenous in cells; host or cells: IGROV-1
# T1 sequence (O95436 1-690): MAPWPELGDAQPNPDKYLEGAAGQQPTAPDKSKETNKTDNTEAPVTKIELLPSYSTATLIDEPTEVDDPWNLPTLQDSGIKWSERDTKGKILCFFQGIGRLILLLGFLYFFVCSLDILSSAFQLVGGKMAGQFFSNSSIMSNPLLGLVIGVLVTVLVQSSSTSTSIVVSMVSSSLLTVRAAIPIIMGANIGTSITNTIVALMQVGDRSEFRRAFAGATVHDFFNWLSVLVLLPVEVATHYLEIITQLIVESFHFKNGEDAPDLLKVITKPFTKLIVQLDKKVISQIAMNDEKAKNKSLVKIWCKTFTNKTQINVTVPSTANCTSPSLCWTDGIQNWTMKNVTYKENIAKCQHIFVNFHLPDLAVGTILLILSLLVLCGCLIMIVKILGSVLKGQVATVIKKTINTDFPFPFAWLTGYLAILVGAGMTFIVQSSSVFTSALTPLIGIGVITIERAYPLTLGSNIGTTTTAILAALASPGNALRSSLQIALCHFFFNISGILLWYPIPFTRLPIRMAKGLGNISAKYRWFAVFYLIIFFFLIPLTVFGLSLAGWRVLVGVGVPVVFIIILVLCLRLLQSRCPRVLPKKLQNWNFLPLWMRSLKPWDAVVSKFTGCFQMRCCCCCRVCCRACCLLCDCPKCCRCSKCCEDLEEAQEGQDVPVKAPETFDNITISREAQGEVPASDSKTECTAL
# Experimental: Briefly, cells were seeded at 50,000 cells/well in conical-bottom 96-well plates and treated with test antibody for 24 hours at 4° C. to prevent internalization. Palivizumab (anti-RSV antibody, v22277) was included as a negative control. […] Following incubation, cells were washed and stained with anti-Human IgG Fc AF647 conjugate (Jackson Immuno Research Labs, West Grove, PA; Cat. No. 109-605-098) at 4° C. for 30 min. Following incubation and washing, fluorescence was detected by flow cytometry on a BD LSRFortessa™ Cell Analyzer (BD Biosciences, Franklin Lake, NJ) with 1,000 minimum events collected per well. The AF647/APC-A GeoMean (fluorescence signal geometric mean, proportional to anti-Human AF647 binding) was calculated for the live cell population using FlowJo™ Version 10.8.1 (BD Biosciences, Franklin Lake, NJ) and plotted for each test antibody using GraphPad Prism Version 9 (GraphPad Software, San Diego, CA).
# The ability of the humanized antibody variants v38591 and v29456 to bind to NaPi2b expressed on cells was assessed on endogenous NaPi2b-expressing tumor cell lines IGROV-1 (ovarian adenocarcinoma) and TOV-21G (ovarian carcinoma) by flow cytometry. IGROV-1 and TOV-21G cells express endogenous NaPi2b at high and moderate levels, respectively, as described in Example 10.
# Cellular binding was performed according to methods described in Example 13.
# [2] = target: T2, NaPi2b expressed on HCC-78 cells (Homo sapiens, UniProt O95436); test: Cellular binding of antibody and ADCs to HCC-78 cells by flow cytometry (Example 14)
# T2 construct: endogenous in cells; host or cells: HCC-78
# T2 sequence (O95436 1-690): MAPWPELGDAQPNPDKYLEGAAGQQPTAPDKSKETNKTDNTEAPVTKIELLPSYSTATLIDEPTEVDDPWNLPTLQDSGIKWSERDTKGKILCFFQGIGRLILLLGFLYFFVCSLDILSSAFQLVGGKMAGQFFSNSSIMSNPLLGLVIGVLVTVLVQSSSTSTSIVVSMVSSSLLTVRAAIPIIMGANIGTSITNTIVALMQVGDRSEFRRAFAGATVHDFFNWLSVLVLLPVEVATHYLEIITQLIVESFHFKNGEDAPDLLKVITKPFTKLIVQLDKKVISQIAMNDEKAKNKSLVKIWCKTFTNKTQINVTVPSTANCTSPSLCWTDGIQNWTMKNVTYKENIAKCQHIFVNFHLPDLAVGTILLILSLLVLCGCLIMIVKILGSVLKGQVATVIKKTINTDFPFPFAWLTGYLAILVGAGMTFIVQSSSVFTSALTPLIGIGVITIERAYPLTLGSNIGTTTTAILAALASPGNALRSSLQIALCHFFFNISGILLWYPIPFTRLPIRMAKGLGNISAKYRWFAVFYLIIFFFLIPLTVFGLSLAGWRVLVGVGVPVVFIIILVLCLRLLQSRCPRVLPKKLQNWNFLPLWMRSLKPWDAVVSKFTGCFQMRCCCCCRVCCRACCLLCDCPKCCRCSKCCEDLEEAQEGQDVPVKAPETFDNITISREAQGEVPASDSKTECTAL
# Experimental: Briefly, HEK293-6e cells were transfected for ˜24 hours to transiently express human NaPi2b, cynomolgus or mouse NaPi2b, at 1 μg of DNA per 1 million cells. Following transfection, 50,000 cells per well were seeded in V-bottom 96-well plates and incubated with 200 nM of primary antibody for 18-24 hours at 4° C. to prevent internalization. Post-incubation, cells were washed and stained with anti-Human IgG Fc AF647 conjugate (Jackson Immuno Research Labs, West Grove, PA, Cat. No. 109-605-098, Lot. No. 124868) at 4° C. for 1 hour. Following staining and washing, fluorescence was detected by flow cytometry on BD LSRFortessa™ Cell Analyzer (BD Biosciences, Franklin Lake, NJ) with 10,000 minimum events collected per well. The AF647/APC-A GeoMean (fluorescence signal geometric mean, proportional to anti-Human AF647 binding) was calculated for the live singlet cell population for each primary antibody using FlowJo™ v8 software (BD Biosciences, Franklin Lake, NJ). The Bmax and Kd of each primary antibody were calculated using GraphPad Prism Version 9 (GraphPad Software, San Diego, CA)
# The ability of ADCs to bind to cells expressing NaPi2b was assessed. ADCs of a representative humanized variant antibody, v29456 (H1L2), were prepared by conjugation to DL2 and DL1 as described in Example 11. Binding to endogenous high NaPi2b-expressing cell lines IGROV-1 and HCC-78 was assessed by flow cytometry according to methods described in Example 5.
# [3] = target: T1, NaPi2b expressed on IGROV-1 cells; test: Cellular binding of bivalent antibodies to IGROV-1 cells by flow cytometry (Example 13); conditions: IGROV-1, 24 hours at 4° C., NB = no cellular binding
molecule,measurement,setting,value
"v29456: humanized anti-NaPi2b IgG1/kappa antibody H1L2; VH SEQ ID NO:24, VL SEQ ID NO:29 (antibody, V domains shown, v29452, v29456, v29460 VH (H1); v29453, v29454, v29455, v29456 VL (L2)) VH: QVQLVQSGAEVKKPGASVKVSCKASGFTFTSYNVHWVRQAPGQGLEWMGAISPGNGDLSYAQKFQGRVTMTRDTSTSTVYMELSSLRSEDTAVYYCARGRTGMGAVDYWGQGTLVTVSS VL: DVQMTQSPSSLSASVGDRVTITCRASQDVYSYLNWYQQKPGKAVKLLIYYTSRLQSGVPSRFSGSGSGTDYTLTISSLQPEDFATYYCQQYNIFPWTFGQGTKLEIK",Bmax (MFI),[1],"20,096 MFI"
same,Curve Hill Slope (h),[1],1.1
same,Kd,[1],1.28 nM
same,Bmax,[2],"21,785"
same,Curve Hill Slope (h),[2],1.2
same,Kd,[2]; apparent Kd,2.27 nM
same,Bmax (MFI),[3],"40,867 MFI"
same,Curve Hill Slope (h),[3],1.1
same,Kd,[3]; apparent Kd,1.1 nM
